According to article PMC4132743 (Nucleic Acids Research, 2014):

Tests used:
DnaT84-153 = biological target: T1, DnaT84-153 (Escherichia coli K12, UniProt P0A8J2 84-153); assay: fluorescence polarization; apparent; Hill h=2.1±0.2; Buffer A: 20 mM Tris-HCl pH 7.5, 40 mM NaCl, 5% v/v glycerol, 20 C; FPA 200 nM 5'-FAM DNA, Hill fit; EMSA 30 min at 20 C, gels in 0.5x TBE at 4 C; settings: protein: recombinant; tags: His-MBP removed by TEV; label: 5'-FAM
T1 sequence: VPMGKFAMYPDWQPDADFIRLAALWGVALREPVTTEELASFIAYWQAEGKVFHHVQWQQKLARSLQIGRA

DnaT84-179 = biological target: T2, DnaT84-179 (Escherichia coli K12, UniProt P0A8J2 84-179); assay: fluorescence polarization; apparent; Hill h=2.7±0.2; Buffer A: 20 mM Tris-HCl pH 7.5, 40 mM NaCl, 5% v/v glycerol, 20 C; FPA 200 nM 5'-FAM DNA, Hill fit; EMSA 30 min at 20 C, gels in 0.5x TBE at 4 C; settings: protein: recombinant; tags: His-MBP removed by TEV; chain copies: 2; label: 5'-FAM
T2 sequence: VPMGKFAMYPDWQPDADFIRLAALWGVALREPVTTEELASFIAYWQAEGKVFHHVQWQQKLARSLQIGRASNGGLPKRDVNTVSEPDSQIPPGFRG

DnaT (wt, full length) [1] = biological target: T3, DnaT (wt, full length) (Escherichia coli K12, UniProt P0A8J2 1-179); assay: fluorescence polarization; apparent; Hill h=3.6±0.3; Buffer A: 20 mM Tris-HCl pH 7.5, 40 mM NaCl, 5% v/v glycerol, 20 C; FPA 200 nM 5'-FAM DNA, Hill fit; EMSA 30 min at 20 C, gels in 0.5x TBE at 4 C; settings: protein: recombinant; tags: His-MBP removed by TEV; label: 5'-FAM
T3 sequence: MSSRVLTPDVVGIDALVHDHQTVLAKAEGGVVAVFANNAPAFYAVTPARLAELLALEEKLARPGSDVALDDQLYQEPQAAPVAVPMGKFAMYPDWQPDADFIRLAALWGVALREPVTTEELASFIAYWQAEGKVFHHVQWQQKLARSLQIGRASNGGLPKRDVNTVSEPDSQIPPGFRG

DnaT (wt, full length) [2] = biological target: T3, DnaT (wt, full length); assay: fluorescence polarization; apparent; Hill h=2.0±0.2; Buffer A: 20 mM Tris-HCl pH 7.5, 40 mM NaCl, 5% v/v glycerol, 20 C; FPA 200 nM 5'-FAM DNA, Hill fit; EMSA 30 min at 20 C, gels in 0.5x TBE at 4 C; settings: protein: recombinant; tags: His-MBP removed by TEV; label: 5'-FAM
DnaT (wt, full length) [3] = biological target: T3, DnaT (wt, full length); assay: fluorescence polarization; apparent; Hill h=2.3±0.3; Buffer A: 20 mM Tris-HCl pH 7.5, 40 mM NaCl, 5% v/v glycerol, 20 C; FPA 200 nM 5'-FAM DNA, Hill fit; EMSA 30 min at 20 C, gels in 0.5x TBE at 4 C; settings: protein: recombinant; tags: His-MBP removed by TEV; label: 5'-FAM
DnaT (wt, full length) [4] = biological target: T3, DnaT (wt, full length); assay: EMSA; 20 uM DNA; Buffer A: 20 mM Tris-HCl pH 7.5, 40 mM NaCl, 5% v/v glycerol, 20 C; FPA 200 nM 5'-FAM DNA, Hill fit; EMSA 30 min at 20 C, gels in 0.5x TBE at 4 C; settings: protein: recombinant; tags: His-MBP removed by TEV
DnaT (wt, full length) [5] = biological target: T3, DnaT (wt, full length); assay: fluorescence polarization; apparent; Hill h=1.6±0.2; Buffer A: 20 mM Tris-HCl pH 7.5, 40 mM NaCl, 5% v/v glycerol, 20 C; FPA 200 nM 5'-FAM DNA, Hill fit; EMSA 30 min at 20 C, gels in 0.5x TBE at 4 C; settings: protein: recombinant; tags: His-MBP removed by TEV; label: 5'-FAM
[6] = biological target: the molecule itself; assay: SEC; Superdex 75 or Superdex 200 10/300 GL in buffer A (20 mM Tris-HCl pH 7.5, 40 mM NaCl, 5% glycerol), against molecular mass standards
DnaT (wt, full length) [7] = biological target: T3, DnaT (wt, full length); assay: fluorescence polarization; apparent; Hill h=2.3±0.2; Buffer A: 20 mM Tris-HCl pH 7.5, 40 mM NaCl, 5% v/v glycerol, 20 C; FPA 200 nM 5'-FAM DNA, Hill fit; EMSA 30 min at 20 C, gels in 0.5x TBE at 4 C; settings: protein: recombinant; tags: His-MBP removed by TEV; label: 5'-FAM
DnaT (wt, full length) [8] = biological target: T3, DnaT (wt, full length); assay: fluorescence polarization; apparent; Hill h=1.8±0.2; Buffer A: 20 mM Tris-HCl pH 7.5, 40 mM NaCl, 5% v/v glycerol, 20 C; FPA 200 nM 5'-FAM DNA, Hill fit; EMSA 30 min at 20 C, gels in 0.5x TBE at 4 C; settings: protein: recombinant; tags: His-MBP removed by TEV; label: 5'-FAM
DnaT (wt, full length) [9] = biological target: T3, DnaT (wt, full length); assay: fluorescence polarization; apparent; Hill h=1.8±0.3; Buffer A: 20 mM Tris-HCl pH 7.5, 40 mM NaCl, 5% v/v glycerol, 20 C; FPA 200 nM 5'-FAM DNA, Hill fit; EMSA 30 min at 20 C, gels in 0.5x TBE at 4 C; settings: protein: recombinant; tags: His-MBP removed by TEV; label: 5'-FAM
DnaT (wt, full length) [10] = biological target: T3, DnaT (wt, full length); assay: fluorescence polarization; apparent; Hill h=2.5±0.6; Buffer A: 20 mM Tris-HCl pH 7.5, 40 mM NaCl, 5% v/v glycerol, 20 C; FPA 200 nM 5'-FAM DNA, Hill fit; EMSA 30 min at 20 C, gels in 0.5x TBE at 4 C; settings: protein: recombinant; tags: His-MBP removed by TEV; label: 5'-FAM
[11] = biological target: the molecule itself; assay: negative-staining electron microscopy; purified DnaT alone in buffer A (also after DNase I), 0.7% uranyl formate, FEI Tecnai F20

B1: 5F-dT30 (ssDNA)
DNA: TTTTTTTTTTTTTTTTTTTTTTTTTTTTTT
B1 was tested, and the Kd (DnaT84-153) was 27.1 ± 2.3 µM, the Kd (DnaT84-179) was 9.87 ± 0.32 µM and the Kd (DnaT (wt, full length) [1]) was 12.9 ± 0.57 µM.

B2: 5F-dT15 (ssDNA)
DNA: TTTTTTTTTTTTTTT
Work on B2 yielded a Kd (DnaT (wt, full length) [2]) of 16.2 ± 1.63 µM.

B3: 5F-d(CA)15 (ssDNA)
DNA: CACACACACACACACACACACACACACACA
B3 gave a Kd (DnaT (wt, full length) [3]) of 31.5 ± 3.6 µM.

B4: dT10 (ssDNA)
DNA: TTTTTTTTTT
B4: binds (DnaT (wt, full length) [4]).

B5: 5F-d(TG)15 (ssDNA)
DNA: TGTGTGTGTGTGTGTGTGTGTGTGTGTGTG
With B5 the Kd (DnaT (wt, full length) [5]) was 1.3 ± 0.11 µM.

B6: DnaT^84–153 (N- and C-terminal-truncated DnaT, recombinant fragment) (domain or fragment, Escherichia coli (strain K12), UniProt P0A8J2 84-153, looked up)
chain: VPMGKFAMYPDWQPDADFIRLAALWGVALREPVTTEELASFIAYWQAEGKVFHHVQWQQKLARSLQIGRA
notes: Dimer in solution by size-exclusion chromatography (see the N row); source: E. coli BL21 (DE3), purified (Ni-chelating resin, TEV digestion, HisTrap HP, HiTrap DEAE FF, Superdex 200); not shown: His, N-terminal, cleaved; MBP, N-terminal, cleaved
For B6, the “stoichiometry N” value [6] was 2.

B7: DnaT^84–179 (N-terminal-truncated DnaT) (domain or fragment, Escherichia coli (strain K12), UniProt P0A8J2 84-179, looked up)
chain: VPMGKFAMYPDWQPDADFIRLAALWGVALREPVTTEELASFIAYWQAEGKVFHHVQWQQKLARSLQIGRASNGGLPKRDVNTVSEPDSQIPPGFRG
notes: as for B6
For B7, the “stoichiometry N” value [6] was 2.

B8: 5F-d(TGGG)7 (ssDNA)
DNA: TGGGTGGGTGGGTGGGTGGGTGGGTGGG
For B8, the Kd (DnaT (wt, full length) [7]) was 0.597 ± 0.02 µM.

B9: 5F-dA30 (ssDNA)
DNA: AAAAAAAAAAAAAAAAAAAAAAAAAAAAAA
B9 showed a Kd (DnaT (wt, full length) [8]) of 39.2 ± 3.85 µM.

B10: 5F-d(TGG)10 (ssDNA)
DNA: TGGTGGTGGTGGTGGTGGTGGTGGTGGTGG
Binder B10 has a Kd (DnaT (wt, full length) [9]) of 2.76 ± 0.28 µM.

B11: 5F-dA15 (ssDNA)
DNA: AAAAAAAAAAAAAAA
B11 showed a Kd (DnaT (wt, full length) [10]) of 46.7 ± 6.87 µM.

B12: DnaT F135A (natural protein, Escherichia coli (strain K12), UniProt P0A8J2 1-179, looked up)
chain: MSSRVLTPDVVGIDALVHDHQTVLAKAEGGVVAVFANNAPAFYAVTPARLAELLALEEKLARPGSDVALDDQLYQEPQAAPVAVPMGKFAMYPDWQPDADFIRLAALWGVALREPVTTEELASFIAYWQAEGKVAHHVQWQQKLARSLQIGRASNGGLPKRDVNTVSEPDSQIPPGFRG
notes: E. coli K12 DnaT, made from the wt-DnaT vector by site-directed mutagenesis; source: E. coli BL21 (DE3), purified as the wild type; not shown: His, N-terminal, cleaved; MBP, N-terminal, cleaved
B12: binds [6].

B13: DnaT R146A (natural protein, Escherichia coli (strain K12), UniProt P0A8J2 1-179, looked up)
chain: MSSRVLTPDVVGIDALVHDHQTVLAKAEGGVVAVFANNAPAFYAVTPARLAELLALEEKLARPGSDVALDDQLYQEPQAAPVAVPMGKFAMYPDWQPDADFIRLAALWGVALREPVTTEELASFIAYWQAEGKVFHHVQWQQKLAASLQIGRASNGGLPKRDVNTVSEPDSQIPPGFRG
notes: as for B12
B13: binds [6].

B14: DnaT W128A (natural protein, Escherichia coli (strain K12), UniProt P0A8J2 1-179, looked up)
chain: MSSRVLTPDVVGIDALVHDHQTVLAKAEGGVVAVFANNAPAFYAVTPARLAELLALEEKLARPGSDVALDDQLYQEPQAAPVAVPMGKFAMYPDWQPDADFIRLAALWGVALREPVTTEELASFIAYAQAEGKVFHHVQWQQKLARSLQIGRASNGGLPKRDVNTVSEPDSQIPPGFRG
notes: as for B12
B14: binds [6].

B15: DnaT K143A (natural protein, Escherichia coli (strain K12), UniProt P0A8J2 1-179, looked up)
chain: MSSRVLTPDVVGIDALVHDHQTVLAKAEGGVVAVFANNAPAFYAVTPARLAELLALEEKLARPGSDVALDDQLYQEPQAAPVAVPMGKFAMYPDWQPDADFIRLAALWGVALREPVTTEELASFIAYWQAEGKVFHHVQWQQALARSLQIGRASNGGLPKRDVNTVSEPDSQIPPGFRG
notes: as for B12
B15: binds [6].

B16: DnaT K133A (natural protein, Escherichia coli (strain K12), UniProt P0A8J2 1-179, looked up)
chain: MSSRVLTPDVVGIDALVHDHQTVLAKAEGGVVAVFANNAPAFYAVTPARLAELLALEEKLARPGSDVALDDQLYQEPQAAPVAVPMGKFAMYPDWQPDADFIRLAALWGVALREPVTTEELASFIAYWQAEGAVFHHVQWQQKLARSLQIGRASNGGLPKRDVNTVSEPDSQIPPGFRG
notes: as for B12
B16: binds [6].

B17: DnaT Y127A (natural protein, Escherichia coli (strain K12), UniProt P0A8J2 1-179, looked up)
chain: MSSRVLTPDVVGIDALVHDHQTVLAKAEGGVVAVFANNAPAFYAVTPARLAELLALEEKLARPGSDVALDDQLYQEPQAAPVAVPMGKFAMYPDWQPDADFIRLAALWGVALREPVTTEELASFIAAWQAEGKVFHHVQWQQKLARSLQIGRASNGGLPKRDVNTVSEPDSQIPPGFRG
notes: as for B12
B17: binds [6].

B18: DnaT Y127A/W128A double mutant (natural protein, Escherichia coli (strain K12), UniProt P0A8J2 1-179, looked up)
chain: MSSRVLTPDVVGIDALVHDHQTVLAKAEGGVVAVFANNAPAFYAVTPARLAELLALEEKLARPGSDVALDDQLYQEPQAAPVAVPMGKFAMYPDWQPDADFIRLAALWGVALREPVTTEELASFIAAAQAEGKVFHHVQWQQKLARSLQIGRASNGGLPKRDVNTVSEPDSQIPPGFRG
notes: as for B12
B18: binds [6].

B19: DnaT (full-length, wild type) (natural protein, Escherichia coli (strain K12), UniProt P0A8J2 1-179, looked up)
chain: MSSRVLTPDVVGIDALVHDHQTVLAKAEGGVVAVFANNAPAFYAVTPARLAELLALEEKLARPGSDVALDDQLYQEPQAAPVAVPMGKFAMYPDWQPDADFIRLAALWGVALREPVTTEELASFIAYWQAEGKVFHHVQWQQKLARSLQIGRASNGGLPKRDVNTVSEPDSQIPPGFRG
notes: E. coli K12 DnaT, amplified from genomic DNA; also called wt-DnaT; DnaT-FL; source: E. coli BL21 (DE3), purified (Ni-chelating resin, TEV digestion, HisTrap HP, HiTrap DEAE FF, Superdex 200); not shown: His, N-terminal, cleaved; MBP, N-terminal, cleaved
B19: binds [11].
